A word on the Kd: it is the equilibrium constant for the complex coming apart. Low values mean a tighter complex, high ones a looser complex.

Experimental findings from patent publication US20240336649, “SYNTHESIS OF COVALENT PROTEIN DIMERS THAT CAN INHIBIT MYC-DRIVEN TRANSCRIPTION” (MASSACHUSETTS INSTITUTE OF TECHNOLOGY, published 2024) are described below.

Series [1] addresses Max-Max 14 (S-aryl linked covalent dimer) (UniProt P61244;P61244 SEQ:1-80,SEQ:1-80). The experiment in a line: BLI. The settings on record: protein: synthetic; tags: chemically synthesized; C-terminal cysteines crosslinked by dithiobenzene; chain copies: 2 stated.
Series [2] addresses Omomyc-Max 17 (S-aryl linked covalent dimer) (UniProt P01106;P61244 SEQ:1-90,SEQ:1-80). In words: EMSA. The settings on record: protein: synthetic; tags: chemically synthesized; C-terminal cysteines crosslinked by dithiobenzene.
Series [3] concerns the target Myc-Max 16 (S-aryl linked covalent dimer) (UniProt P01106;P61244 SEQ:1-82,SEQ:1-80). The experiment in a line: EMSA. The conditions noted are these: protein: synthetic; tags: chemically synthesized; C-terminal cysteines crosslinked by dithiobenzene.
The target of series [4] is Myc-Myc 13 (S-aryl linked covalent dimer) (UniProt P01106;P01106 SEQ:1-82,SEQ:1-82). In words: EMSA; negative control. The settings on record: protein: synthetic; tags: chemically synthesized; C-terminal cysteines crosslinked by dithiobenzene; chain copies: 2 stated. (In general: In EMSA bound probe runs differently from free probe, usually more slowly.)
The target in series [5] is Omomyc analog 12 (C-terminal Cys), non-covalent homodimer (UniProt P01106 SEQ:1-90). The experiment in a line: EMSA; Omomyc+Omomyc. The settings on record: protein: synthetic; tags: chemically synthesized; C-terminal cysteine added; chain copies: 2 stated. The text has this: (§1) The three synthetic analogs 10, 11, and 12 can form non-covalent dimers and bind to the target E-box DNA (5′-[…]-3′). […] However, it is not possible to determine which dimeric species form in a solution containing two different monomers. For instance, upon mixing Max (11) and Omomyc (12), three different dimers (Max/Max, Omomyc/Omomyc and Max/Omomyc) can form and potentially bind to DNA (FIG. 18). To assess the activity of these protein complexes in a reliable manner, access to well-defined covalent protein dimers is critical.

For series [6], the target named is Max analog 11 (C-terminal Cys), non-covalent homodimer (UniProt P61244 SEQ:1-80). In words: EMSA; Max+Max. The settings on record: protein: synthetic; tags: chemically synthesized; C-terminal cysteine added; chain copies: 2 stated.
Excerpt: as §1

The target in series [7] is MYC monomer (bHLHZ, Example 2) (UniProt P01106 SEQ:1-82). In words: EMSA; negative control, 4 uM protein, 1 uM DNA. The conditions noted are these: protein: synthetic; tags: chemically synthesized by automated flow peptide synthesis. The procedure:
(§2) Biophysical characterization confirmed the folding and DNA-binding activity of the four covalent protein dimers 3, 4, 5, and 6. The dimers were first analyzed by sodium dodecyl sulfate polyacrylamide gel electrophoresis (SDS-PAGE). […] Next an electrophoretic mobility shift assay (EMSA) was performed to determine the dimers' DNA binding activity. At a DNA concentration of 1 μM and protein concentration of 2 μM, all dimers formed complexes with the E-Box DNA, as observed by the shift retardation on the gel.
(§3) The E-Box DNA probe (2 μM in binding buffer) was heated to 95° C. for 5 minutes and then let cool down to room temperature over 15 minutes for double-strand annealing. Protein dimer (4 μM in binding buffer: MES 10 mM, KCl 150 mM, MgCl₂ 1 mM, TCEP 1 mM, glycerol 10%, pH=6.5) was added to the DNA (final concentrations: 2 μM protein and 1 μM DNA) and the mixture was incubated for 1 h at room temperature. During the incubation, a 10% polyacrylamide gel was prerun (1 h, 4° C., 100 V) in 1× TBE buffer. After that time, DNA protein mixture (20 μL) was mixed with 6× DNA Loading Dye (4 μL)) and loaded on the gel, which was run at 75 V, for 90 min at 4° C. The gel was washed with water for 20 seconds and then stained with 0.02% ethidium bromide in 1xTBE buffer for 15 min at room temperature. Bands were visualized on a Biorad Gel imager.

For series [8], the target named is Omomyc-Omomyc covalent homodimer 4 (lysine-linked) (UniProt P01106;P01106 SEQ:1-90,SEQ:1-90). In words: EMSA; 2 uM protein, 1 uM DNA; MES 10 mM, KCl 150 mM, MgCl2 1 mM, pH 6.5, RT. The conditions noted are these: protein: synthetic; tags: chemically synthesized; C-termini linked via Lys-betaAla-Lys linker; chain copies: 2 stated. The procedure:
as §2, §3

Series [9] concerns the target Omomyc-MAX covalent heterodimer 6 (lysine-linked) (UniProt P01106;P61244 SEQ:1-90,SEQ:1-80). The description is as above. The settings on record: protein: synthetic; tags: chemically synthesized; C-termini linked via Lys-betaAla-Lys linker; Boc-Gly coupled as last residue of MAX during synthesis. The procedure:
as §2, §3

Series [10] deals with MYC-MAX covalent heterodimer 5 (lysine-linked) (UniProt P01106;P61244 SEQ:1-82,SEQ:1-80). The series is described as above. The settings on record: protein: synthetic; tags: chemically synthesized; C-termini linked via Lys-betaAla-Lys linker; Boc-Gly coupled as last residue of MAX during synthesis. The method, then: as §2, §3
Series [11] has as its target Myc analog 10 (C-terminal Cys) (UniProt P01106 SEQ:1-82). In words: EMSA; Myc alone cannot homodimerize. The conditions noted are these: protein: synthetic; tags: chemically synthesized; C-terminal cysteine added.
Excerpt: as §1

B1: E-box DNA probe (22 bp) (dsDNA)
DNA 1: CCGGCTGACACGTGGTATTAAT
DNA 2: ATTAATACCACGTGTCAGCCGG
The molecule B1 yielded a dissociation constant (Kd) in series [1] of 50 nM. For the same molecule, the binding result in [2] is “binds”; in [3] it was “binds”; in series [4], “no binding”; in series [5], “binds”; in [6], “binds”; in series [7], “no binding”. In addition, the binding result in series [8] was “binds”; in series [9], “binds”; in series [10] it was “binds”; in series [11], “no binding”.
